{"source": "patent US20100184658A1", "about": "(published 2010)", "test_in_all_cases": "cell-based or functional assay", "key": {"PDK1": {"target": "T1, PDK1 (human (printed as (h)), UniProt O15530 1-556, limits assumed)", "T1 sequence (looked up)": "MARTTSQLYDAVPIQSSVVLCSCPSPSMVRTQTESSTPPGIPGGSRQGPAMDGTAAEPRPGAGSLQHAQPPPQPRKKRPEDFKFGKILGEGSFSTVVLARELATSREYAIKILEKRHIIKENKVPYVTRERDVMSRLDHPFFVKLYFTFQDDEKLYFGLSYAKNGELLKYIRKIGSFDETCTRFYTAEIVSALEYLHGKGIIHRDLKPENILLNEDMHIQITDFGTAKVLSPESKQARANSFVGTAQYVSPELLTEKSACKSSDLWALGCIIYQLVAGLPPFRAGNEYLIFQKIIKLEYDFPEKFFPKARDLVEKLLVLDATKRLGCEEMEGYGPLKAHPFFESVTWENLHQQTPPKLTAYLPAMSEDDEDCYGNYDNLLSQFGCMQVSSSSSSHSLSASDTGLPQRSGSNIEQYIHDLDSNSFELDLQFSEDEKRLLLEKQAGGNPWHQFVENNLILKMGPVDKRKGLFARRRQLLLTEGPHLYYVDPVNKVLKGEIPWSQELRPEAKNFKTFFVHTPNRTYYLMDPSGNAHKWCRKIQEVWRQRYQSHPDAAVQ"}, "IKBKB (IKK beta) IKK2": {"target": "T2, IKBKB (IKK beta) IKK2 (human (printed as (h)), UniProt O14920 1-756, limits assumed)", "T2 sequence (looked up)": "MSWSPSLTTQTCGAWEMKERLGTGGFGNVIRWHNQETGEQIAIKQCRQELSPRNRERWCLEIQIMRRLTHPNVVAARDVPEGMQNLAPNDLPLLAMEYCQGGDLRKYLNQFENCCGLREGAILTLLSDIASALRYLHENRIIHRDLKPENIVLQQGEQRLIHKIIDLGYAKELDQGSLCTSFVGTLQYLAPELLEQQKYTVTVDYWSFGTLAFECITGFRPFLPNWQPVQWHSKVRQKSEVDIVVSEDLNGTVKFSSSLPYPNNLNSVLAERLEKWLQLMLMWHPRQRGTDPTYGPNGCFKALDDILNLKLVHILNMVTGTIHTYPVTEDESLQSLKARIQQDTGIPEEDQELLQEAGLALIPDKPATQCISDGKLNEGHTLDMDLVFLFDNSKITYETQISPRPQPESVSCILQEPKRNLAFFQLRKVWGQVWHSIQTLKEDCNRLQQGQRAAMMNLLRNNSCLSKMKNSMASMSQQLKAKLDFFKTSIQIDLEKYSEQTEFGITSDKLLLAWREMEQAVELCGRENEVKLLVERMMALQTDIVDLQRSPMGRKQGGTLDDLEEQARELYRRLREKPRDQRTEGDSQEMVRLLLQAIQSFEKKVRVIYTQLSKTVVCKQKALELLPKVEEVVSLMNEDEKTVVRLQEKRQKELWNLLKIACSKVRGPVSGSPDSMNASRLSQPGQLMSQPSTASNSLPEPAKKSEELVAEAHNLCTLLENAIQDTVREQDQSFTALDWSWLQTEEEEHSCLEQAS"}, "AKT2 (PKB beta)": {"target": "AKT2 (PKB beta) (human (printed as (h)), UniProt P31751 1-481, limits assumed)", "sequence (P31751 whole entry)": "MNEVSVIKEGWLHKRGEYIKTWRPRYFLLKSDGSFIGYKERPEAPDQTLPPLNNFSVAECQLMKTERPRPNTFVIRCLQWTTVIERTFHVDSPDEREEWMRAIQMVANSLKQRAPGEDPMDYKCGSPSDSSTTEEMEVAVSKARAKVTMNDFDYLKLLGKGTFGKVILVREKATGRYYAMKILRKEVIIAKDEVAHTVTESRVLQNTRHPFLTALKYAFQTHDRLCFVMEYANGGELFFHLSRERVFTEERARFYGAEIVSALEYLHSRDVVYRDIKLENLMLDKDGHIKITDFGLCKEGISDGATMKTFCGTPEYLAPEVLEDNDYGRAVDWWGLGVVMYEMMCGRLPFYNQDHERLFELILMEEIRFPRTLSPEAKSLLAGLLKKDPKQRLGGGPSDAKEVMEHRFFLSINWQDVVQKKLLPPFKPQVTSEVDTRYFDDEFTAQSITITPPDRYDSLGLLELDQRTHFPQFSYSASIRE"}}}
{"binder": "SGRPPMIVWFNRPFLIAVSHTHGQTILFMAKVINPVGA", "note": "[D3 peptide]", "values": [{"measurement": "D3 at 0.1 µM % activity", "setting": "PDK1", "value": 98, "unit": "%"}, {"measurement": "D3 at 1 µm % activity", "setting": "PDK1", "value": 108, "unit": "%"}, {"measurement": "D3 at 0.1 µM % activity", "setting": "IKBKB (IKK beta) IKK2", "value": 103, "unit": "%"}, {"measurement": "D3 at 1 µm % activity", "setting": "IKBKB (IKK beta) IKK2", "value": 71, "unit": "%"}, {"measurement": "D3 at 0.1 µM % activity", "setting": "AKT2 (PKB beta)", "value": 63, "unit": "%"}, {"measurement": "D3 at 1 µm % activity", "setting": "AKT2 (PKB beta)", "value": 12, "unit": "%"}, {"measurement": "IC50", "setting": "AKT2 (PKB beta)", "value": 448, "unit": "nM"}]}
